Assay results published in FireProtDB (doi:10.1006/jmbi.1995.0324).

B1: Subtilisin inhibitor, P01006 (parent)
chain: MRNTGAGPSPSVSRPPPSAAPLSGAALAAPGDAPSALYAPSALVLTVGKGVSATTAAPERAVTLTCAPGPSGTHPAAGSACADLAAVGGDLNALTRGEDVMCPMVYDPVLLTVDGVWQGKRVSYERVFSNECEMNAHGSSVFAF

Variants of: B1
Conditions: Streptomyces albogriseolus, Thermal, DSC, reversible: yes, structure 3SSI, whole UniProt chain shown; for ddG of mutation (higher = less stable) / unfolding free energy: 82.21 °C

In the case of MRNTGAGPSPSVSRPPPSAAPLSGAALAAPGDAPSALYAPSALALTVGKGVSATTAAPERAVTLTCAPGPSGTHPAAGSACADLAAVGGDLNALTRGEDVMCPMVYDPVLLTVDGVWQGKRVSYERVFSNECEMNAHGSSVFAF [V44A], the Tm (pH 9.5, glycine 25 mM) is reported as 67 °C, the “change of melting temperature, mutant - wild type (higher = more stable)” value (from here on “change of melting temperature, mutant”) (pH 9.5, glycine 25 mM) is reported as -13.7 °C and the “unfolding enthalpy (calorimetric)” value (pH 9.5, glycine 25 mM) is reported as 796 kJ/mol.

For MRNTGAGPSPSVSRPPPSAAPLSGAALAAPGDAPSALYAPSALILTVGKGVSATTAAPERAVTLTCAPGPSGTHPAAGSACADLAAVGGDLNALTRGEDVMCPMVYDPVLLTVDGVWQGKRVSYERVFSNECEMNAHGSSVFAF [V44I], the “ddG of mutation (higher = less stable)” value (pH 7, phosphate 25 mM) was 3.51 kJ/mol, the unfolding free energy (pH 7, phosphate 25 mM) was 21.7 kJ/mol and the Tm (pH 7, phosphate 25 mM) was 79.8 °C. For the same variant, the “change of melting temperature, mutant” value (pH 7, phosphate 25 mM) was -2.4 °C, the “unfolding enthalpy (calorimetric)” value (pH 7, phosphate 25 mM) was 761 kJ/mol and the “ddG of mutation (higher = less stable)” value (pH 9.5, glycine 25 mM) was 3.93 kJ/mol. For the same variant, the unfolding free energy (pH 9.5, glycine 25 mM) was 21.3 kJ/mol, the Tm (pH 9.5, glycine 25 mM) was 78.9 °C and the “change of melting temperature, mutant” value (pH 9.5, glycine 25 mM) was -1.83 °C. The “unfolding enthalpy (calorimetric)” value (pH 9.5, glycine 25 mM) was 744 kJ/mol.

For MRNTGAGPSPSVSRPPPSAAPLSGAALAAPGDAPSALYAPSALGLTVGKGVSATTAAPERAVTLTCAPGPSGTHPAAGSACADLAAVGGDLNALTRGEDVMCPMVYDPVLLTVDGVWQGKRVSYERVFSNECEMNAHGSSVFAF [V44G], the Tm (pH 7, phosphate 25 mM) was 54.5 °C, the “change of melting temperature, mutant” value (pH 7, phosphate 25 mM) was -27.7 °C and the “unfolding enthalpy (calorimetric)” value (pH 7, phosphate 25 mM) was 678 kJ/mol. For the same variant, the Tm (pH 9.5, glycine 25 mM) was 55.3 °C, the “change of melting temperature, mutant” value (pH 9.5, glycine 25 mM) was -25.4 °C and the “unfolding enthalpy (calorimetric)” value (pH 9.5, glycine 25 mM) was 660 kJ/mol.

For MRNTGAGPSPSVSRPPPSAAPLSGAALAAPGDAPSALYAPSALFLTVGKGVSATTAAPERAVTLTCAPGPSGTHPAAGSACADLAAVGGDLNALTRGEDVMCPMVYDPVLLTVDGVWQGKRVSYERVFSNECEMNAHGSSVFAF [V44F], the “ddG of mutation (higher = less stable)” value (pH 7, phosphate 25 mM) was 23.8 kJ/mol, the unfolding free energy (pH 7, phosphate 25 mM) was 1.42 kJ/mol and the Tm (pH 7, phosphate 25 mM) was 69.1 °C. The “change of melting temperature, mutant” value (pH 7, phosphate 25 mM) was -13.5 °C, the “unfolding enthalpy (calorimetric)” value (pH 7, phosphate 25 mM) was 703 kJ/mol and the “ddG of mutation (higher = less stable)” value (pH 9.5, glycine 25 mM) was 22.3 kJ/mol. The unfolding free energy (pH 9.5, glycine 25 mM) was 2.97 kJ/mol, the Tm (pH 9.5, glycine 25 mM) was 68.3 °C and the “change of melting temperature, mutant” value (pH 9.5, glycine 25 mM) was -12.4 °C. The “unfolding enthalpy (calorimetric)” value (pH 9.5, glycine 25 mM) was 685 kJ/mol.

With MRNTGAGPSPSVSRPPPSAAPLSGAALAAPGDAPSALYAPSALLLTVGKGVSATTAAPERAVTLTCAPGPSGTHPAAGSACADLAAVGGDLNALTRGEDVMCPMVYDPVLLTVDGVWQGKRVSYERVFSNECEMNAHGSSVFAF [V44L] the Tm (pH 7, phosphate 25 mM) was 77.7 °C, the “change of melting temperature, mutant” value (pH 7, phosphate 25 mM) was -4.5 °C and the “unfolding enthalpy (calorimetric)” value (pH 7, phosphate 25 mM) was 731 kJ/mol. For the same variant, the “ddG of mutation (higher = less stable)” value (pH 9.5, glycine 25 mM) was 10.5 kJ/mol, the unfolding free energy (pH 9.5, glycine 25 mM) was 14.7 kJ/mol and the Tm (pH 9.5, glycine 25 mM) was 75.4 °C. The “change of melting temperature, mutant” value (pH 9.5, glycine 25 mM) was -5.3 °C and the “unfolding enthalpy (calorimetric)” value (pH 9.5, glycine 25 mM) was 713 kJ/mol.

With MRNTGAGPSPSVSRPPPSAAPLSGAALAAPGDAPSALYAPSALMLTVGKGVSATTAAPERAVTLTCAPGPSGTHPAAGSACADLAAVGGDLNALTRGEDVMCPMVYDPVLLTVDGVWQGKRVSYERVFSNECEMNAHGSSVFAF [V44M] the “ddG of mutation (higher = less stable)” value (pH 7, phosphate 25 mM) was 24.8 kJ/mol, the unfolding free energy (pH 7, phosphate 25 mM) was 0.46 kJ/mol and the Tm (pH 7, phosphate 25 mM) was 69.6 °C. For the same variant, the “change of melting temperature, mutant” value (pH 7, phosphate 25 mM) was -12.6 °C, the “unfolding enthalpy (calorimetric)” value (pH 7, phosphate 25 mM) was 756 kJ/mol and the “ddG of mutation (higher = less stable)” value (pH 9.5, glycine 25 mM) was 22.7 kJ/mol. The unfolding free energy (pH 9.5, glycine 25 mM) was 2.55 kJ/mol, the Tm (pH 9.5, glycine 25 mM) was 69 °C and the “change of melting temperature, mutant” value (pH 9.5, glycine 25 mM) was -11.7 °C. For the same variant, the “unfolding enthalpy (calorimetric)” value (pH 9.5, glycine 25 mM) was 738 kJ/mol.
